Data taken from publication PMC9119628 (PLoS Pathogens, 2022).

Experiments:
[1] = biological target: T1, HA-NP (HA-tagged EBOV nucleoprotein) (Zaire ebolavirus (EBOV), UniProt P18272 1-739); assay: pull-down; conditions: one partner purified
T1 sequence: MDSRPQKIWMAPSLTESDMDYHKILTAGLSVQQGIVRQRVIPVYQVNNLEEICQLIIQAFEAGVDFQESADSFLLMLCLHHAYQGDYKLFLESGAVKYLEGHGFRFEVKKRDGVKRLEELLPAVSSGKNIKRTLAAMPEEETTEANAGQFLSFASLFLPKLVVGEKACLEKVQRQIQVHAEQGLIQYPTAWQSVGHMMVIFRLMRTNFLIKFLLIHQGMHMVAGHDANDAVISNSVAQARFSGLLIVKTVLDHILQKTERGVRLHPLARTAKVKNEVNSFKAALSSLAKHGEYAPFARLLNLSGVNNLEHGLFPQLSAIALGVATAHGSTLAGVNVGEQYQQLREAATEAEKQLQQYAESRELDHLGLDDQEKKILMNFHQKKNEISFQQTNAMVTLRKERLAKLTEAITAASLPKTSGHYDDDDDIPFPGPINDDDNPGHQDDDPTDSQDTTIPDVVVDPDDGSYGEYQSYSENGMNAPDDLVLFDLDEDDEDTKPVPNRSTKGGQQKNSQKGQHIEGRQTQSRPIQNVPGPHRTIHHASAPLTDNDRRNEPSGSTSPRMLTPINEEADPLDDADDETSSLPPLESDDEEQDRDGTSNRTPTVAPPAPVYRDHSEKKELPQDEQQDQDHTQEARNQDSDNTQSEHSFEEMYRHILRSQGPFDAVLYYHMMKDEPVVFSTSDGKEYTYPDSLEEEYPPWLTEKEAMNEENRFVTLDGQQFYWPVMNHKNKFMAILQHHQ

[2] = biological target: T1, HA-NP (HA-tagged EBOV nucleoprotein); assay: co-IP; conditions: partners not purified

B1: untagged EBOV VP35 wild type (natural protein)
chain: MTTRTKGRGHTAATTQNDRMPGPELSGWISEQLMTGRIPVSDIFCDIENNPGLCYASQMQQTKPNPKTRNSQTQTDPICNHSFEEVVQTLASLATVVQQQTIASESLEQRITSLENGLKPVYDMAKTISSLNRVCAEMVAKYDLLVMTTGRATATAAATEAYWAEHGQPPPGPSLYEESAIRGKIESRDETVPQSVREAFNNLNSTTSLTEENFGKPDISAKDLRNIMYDHLPGFGTAFHQLVQVICKLGKDSNSLDIIHAEFQASLAEGDSPQCALIQITKRVPIFQDAAPPVIHIRSRGDIPRACQKSLRPVPPSPKIDRGWVCVFQLQDGKTLGLKI
- fold change of binding, with OTU-wt co-expression against without OTU [1]: 5 fold
- fold change of binding, T6-KO against wt A549 cells [2]: 6 fold
